According to doi:10.1101/2022.04.06.487260, “The purified recombinant FAT domain of the Focal Adhesion Kinase does not bind directly to recombinant Talin or MBD2 in vitro” (bioRxiv, 2022):

Molecular target: T1, Talin F2F3 (206-405, C336S) (UniProt Q9Y490 206-405, C336S)
T1 construct: Talin (head 1-433, rod 434-2541), F2 and F3 lobes of the FERM domain, residues 206-405; gene codon optimised and synthesised; the purification (beads before and after cleavage, elution as a 25 kDa protein) describes the cleaved protein; also called Talin206-405; Talin F2F3 head
Test: NMR titration; 1H-15N HSQC; 90 μM 15N-labelled FAT incubated with Talin at molar ratios of 1:0.5, 1:1 and 1:2; 25 °C
Conditions: both partners purified

T1 sequence (Q9Y490 206-405 C336S): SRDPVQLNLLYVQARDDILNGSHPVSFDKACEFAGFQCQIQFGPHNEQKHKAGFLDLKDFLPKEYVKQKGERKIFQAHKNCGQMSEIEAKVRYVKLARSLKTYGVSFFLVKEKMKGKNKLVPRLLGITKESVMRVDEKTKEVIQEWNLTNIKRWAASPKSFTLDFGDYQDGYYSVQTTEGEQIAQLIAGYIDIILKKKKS

Kd: > 100 µM
B1: FAT domain of human FAK (892-1052) (domain or fragment, UniProt Q05397 892-1052, looked up)
chain: SSPADSYNEGVKLQPQEISPPPTANLDRSNDKVYENVTGLVKAVIEMSSKIQPAPPEEYVPMVKEVGLALRTLLATVDETIPLLPASTHREIEMAQKLLNSDLGELINKMKLAQQYVMTSLQQEYKKQMLTAAHALAVDAKNLLDVIDQARLKMLGQTRPH
notes: focal adhesion kinase (FAK), human, residues 892-1052: FAT domain with N-terminal residues preceding the four-helix bundle (922-1049); Expressed as GST fusion from pGex-6P2 and released from the beads with 3C protease; 15N-labelled (M9 medium with 15N-NH4Cl) for the NMR experiments; also called FAT892-1052; FAK FAT; source: E. coli BL21, purified (Glutathione Sepharose 4B, 3C protease, Superdex …)
